B1: CAMK2A (parent)
chain: ILLVGYPPFWDEDQHRLYKQIKAG

Variants of: B1
Assay: protein stability index of a GFP-peptide fusion (GPS, HEK-293T) (PSI 1-6); higher = more stable
Conditions: c terminus: a fixed tail appended
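Further: lentivirally expressed fusions sorted by FACS into six bins by GFP to DsRed ratio, PSI derived from sequencing read proportions per bin multiplied by bin number.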

Protein stability index: each site, then its substitutions
E12: P 2.84; Q 3.3; R 2.23; T 1.96; V 2.56; W 2.32; Y 2.57
D13: A 3.24; C 2.36; E 1.76; F 3.02; H 2.2; I 2.18; K 3.5; L 3.98; M 3.08; P 2.24; Q 2.42; R 2.19; S 2.06; T 2.2; V 2.54
Q14: A 2.65; D 2.32; E 2.01; F 2.52; G 3.47; H 2.67; I 2.05; K 1.68; L 2.35; N 2.33; P 3.6; R 2.78; S 2.59; T 2.98; V 2.89; W 1.57; Y 2.54
H15: A 2.55; C 3.07; D 2.13; E 2.14; F 2.5; G 2.21; I 2.31; K 1.24; L 2.16; N 2.2; P 2.6; Q 2.51; S 2.89; T 2.8; V 2.84; W 2.08
R16: A 2.61; C 2.16; D 2.63; E 2.2; F 2.2; G 1.64; H 2.12; I 1.62; K 1.57; L 2.27; M 2.07; N 2.27; P 1.54; Q 1.84; S 2.5; T 1.29; V 2.67; W 1.62; Y 3.24
L17: A 1.62; C 1.19; D 2.06; E 2.09; F 2.12; G 1.58; H 1.75; I 2.1; K 1.74; M 2.47; N 1.31; P 2.03; Q 2.3; R 2.12; S 1.8; T 2.14; V 2.21; W 2.09; Y 2.38
Y18: A 2.09; C 1.73; D 1.97; E 2.38; F 1.4; G 2.79; H 1.89; I 2.21; K 2.31; L 2.48; M 2.16; N 2.05; P 1.71; Q 1.51; R 2.45; S 1.95; T 3.2; V 1.25; W 2.45
K19: A 1.65; D 2.82; E 1.87; F 2.66; G 3.31; H 1.38; I 2.67; M 3.5; N 3.09; P 1.73; Q 2.79; R 1.36; S 2.63; T 1.72; V 2.9; W 2.65; Y 3.14
Q20: A 1.78; C 1.94; D 1.9; E 2.18; F 2.69; G 2.1; H 2.86; I 1.96; K 1.56; L 2.6; M 2.36; N 1.83; P 1.39; R 2; S 1.86; T 1.62; V 3.11; W 2.02
I21: A 1.79; C 2.35; D 1.99; E 1.92; F 3.06; G 1.54; H 1.47; K 1.65; L 2.31; M 1.72; N 2.19; P 1.42; Q 2.28; R 2.05; S 1.82; T 1.73; V 1.89; W 2.4; Y 1.84
K22: A 2.87

Source: the supplement of paper PMC10567573
